These results are taken from patent US20100055034A1 (DOMPE PHA MA S P A, published 2010).

The target of assay [1] is T1, human folate receptor alpha as expressed on cells (human, UniProt P15328 25-234).
T1 construct: GPI-anchored on the cell surface; Natural expression on OVCAR3 and IGROV1 ovarian carcinoma cells, transfected into A431 cells (A431-FR); also called alpha FR; FR-alpha
Description: cell ELISA on fixed A431-FR cells, F(ab')2; KD = concentration at half of plateau signal. How it is done: (§1) 4×10⁴ cells (human ovarian carcinoma cell lines OVCAR3 (ATCC) and IGROVI (a gift from Dr J. Bénard, Institut Gustave Roussy, Villejuif, France), and A431-FR⁽¹⁷⁾ cells which are human epidermoid carcinoma cells transfected with folate receptor alpha,) were seeded in each well of a 96 wells format plate, and grown until a confluent monolayer was obtained. Cells were fixed, for 5 minutes, at room temperature with 0.1% glutaraldehyde in PBS. Plates were washed twice with PBS, then once (5 minutes) with 0.1M glycine in PBS+0.02% NaN₃, successively five times with PBS and finely with PBS containing 1% BSA and 0.02% NaN₃.
(§2) An anti-human IgG (Fab specific, Sigma) peroxidase conjugated diluted 1:1000 in PBS+0.03% BSA was used to reveal antibodies fragment binding.
(§3) Since no signal could be detected on the A431 mock cells which are cells transfected with the empty vector, as compared to the cells transfected with FR-alpha, both AFRA and C4 antibodies were judged to be specific for the alpha folate receptor. […] Table I reports ELISA determination of KD values of F(ab′)₂ of C4 and AFRA antibodies fragments. The KD was determined as to be the concentration at which half of the ELISA plateau signal is obtained.

For assay [2], the target named is T1, human folate receptor alpha as …. Description: cell ELISA on fixed IGROV1 cells, F(ab')2; KD = concentration at half of plateau signal. The method, then:
as §1, §2, §3

For assay [3] the target is unchanged. As to the kind of experiment: cell ELISA on fixed OVCAR3 cells, F(ab')2; KD = concentration at half of plateau signal. The method, then:
as §1, §2, §3

Assay [4] deals with T2, recombinant soluble human alpha folate receptor with His6 purification tag (human, UniProt P15328 25-232).
T2 construct: Expressed in CHO-K1 cells and purified from the supernatant; also called soluble alpha FR; recombinant FR
T2 sequence (P15328 other isoform, or with tags, fused parts or gaps limits assumed): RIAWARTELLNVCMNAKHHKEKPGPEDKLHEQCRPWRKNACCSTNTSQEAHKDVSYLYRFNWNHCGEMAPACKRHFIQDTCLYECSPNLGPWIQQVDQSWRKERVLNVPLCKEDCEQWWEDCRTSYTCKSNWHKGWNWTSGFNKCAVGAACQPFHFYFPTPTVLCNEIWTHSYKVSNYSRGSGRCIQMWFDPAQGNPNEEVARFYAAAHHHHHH
As to the kind of experiment: SPR (BIAcore), KD of AFRA Fab against KD of C4 Fab. The method, then: (§4) FIG. 3 (BIAcore binding): Determination of antibody fragments binding parameters on alpha folate receptor. For this several concentrations of Fab monomer (from 3 to 200 nM) were flowed in the sensorchip cell previously coated with the recombinant receptor and binding was registered for 30 minutes. After this time period washing was monitored for another twenty minutes.
(§5) The target protein was coated on […] BIAcore sensorchip and several concentrations of both antibody fragments were used to determine the binding kinetics. In particular, recombinant FR was covalently bound to a CM5 sensor chip using the amine coupling kit (Pharmacia) with an antigen concentration of 0.6 μg/ml in 10 mM sodium acetate, pH 4.8 yielding a surface of 280 RU. Residual activated groups were blocked by injection of […] ethanolamine (1.0 M pH 8.5). […] Evaluation was performed for at least 30 minutes. Subsequently, detachment of residual antibody bound to the sensor chip was performed with 100 mM Glycine Buffer pH 2.7.

Assay [5] has as its target T2, recombinant soluble human alpha folate …. As to the kind of experiment: SPR (BIAcore), recombinant FR amine-coupled to CM5 chip, Fab monomer 3.125-200 nM in flow. The method, then: as §4, §5

T1 sequence (P15328 25-234): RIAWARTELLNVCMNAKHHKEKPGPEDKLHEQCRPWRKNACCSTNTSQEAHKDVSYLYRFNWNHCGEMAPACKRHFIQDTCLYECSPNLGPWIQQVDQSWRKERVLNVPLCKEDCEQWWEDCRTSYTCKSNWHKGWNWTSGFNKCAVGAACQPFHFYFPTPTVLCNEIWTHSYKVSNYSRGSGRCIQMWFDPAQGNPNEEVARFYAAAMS

B1: C4 F(ab')2 natural dimer (other)
light: QSALTQPASVSGSPGQSITISCTGTSSDVGSYNLVSWYQQHPGKAPKLMIYEGSKRPSGVSNRFSGSKSGNAASLTISGLQAEDEADYYCQSYDSSLSVVFGGGTKLTVLGQPKAAPSVTLFPPSSEELQANKATLVCLISDFYPGAVTVAWKADSSPVKAGVETTTPSKQSNNKYAASSYLSLTPEQWKSHRGYSCQVTHEGSTVEKTVAPTECS
heavy: QVQLVESGGGLVQPGRSLRLSCTTSGFTFGDYAMIWARQAPGKGLEWVSSISSSSSYIYYADSVKGRFTISRDNAKNSLYLQMNSLRAEDTAVYYCARERYDFWSGMDVWGKGTTVTVSSASTKGPSVFPLAPSSKSTSGGTAALGCLVKDYFPEPVTVSWNSGALTSGVHTFPAVLQSSGLYSLSSVVTVPSSSLGTQTYICNVNHKPSNTKVDKKDKTSC
modifications: C-terminal hinge cysteine disulfide-bonded to the second Fab'
notes: The preparation is heavily contaminated: 29% L2H2 dimer, 43% L2H pseudo-dimer and 25% free heavy chain; For heavy chain position 1 see the note of m2; also called F(ab')2-C4
With B1, the Kd in assay [1] worked out at 1.2 nM; in assay [2] it was 118 nM; in assay [3] it was 11 nM.

B2: AFRA F(ab')2 natural dimer (other)
light: EIVLTQSPASLAVSPGQRATITCRASESVSFLGINLIHWYQQKPGQPPKLLIYQASNKDTGVPARFSGSGSGTDFTLTINPVEANDTANYYCLQSKNFPPYTFGQGTKLEIKRTVAAPSVFIFPPSDEQLKSGTASVVCLLNNFYPREAKVQWKVDNALQSGNSQESVTEQDSKDSTYSLSSTLTLSKADYEKHKVYACEVTHQGLSSPVTKSFNRGEC
heavy: NVQLVESGGGLVQPGRSLRLSCTTSGFTFGDYAMIWARQAPGKGLEWVSSISSSSSYIYYADSVKGRFTISRDNAKNSLYLQMNSLRAEDTAVYYCARERYDFWSGMDVWGKGTTVTVSSASTKGPSVFPLAPSSKSTSGGTAALGCLVKDYFPEPVTVSWNSGALTSGVHTFPAVLQSSGLYSLSSVVTVPSSSLGTQTYICNVNHKPSNTKVDKKDKTSC
modifications: C-terminal hinge cysteine disulfide-bonded to the second Fab'
notes: F(ab')2 made by natural oxidation of Fab'; By SDS-PAGE the preparation is 80% L2H2 dimer, 16% L2H and 4% free heavy chain; For Q1N see the note of m1; also called F(ab')2-AFRA; AFRA dimer
Regarding B2, the Kd is 2.5 nM in assay [1], 57 nM in assay [2] and 26 nM in assay [3].

B3: AFRA Fab fragment (Anti Folate Receptor Alpha human Fab, kappa light chain) (Fab, V domains shown)
VH: NVQLVESGGGLVQPGRSLRLSCTTSGFTFGDYAMIWARQAPGKGLEWVSSISSSSSYIYYADSVKGRFTISRDNAKNSLYLQMNSLRAEDTAVYYCARERYDFWSGMDVWGKGTTVTVSS
VL: EIVLTQSPASLAVSPGQRATITCRASESVSFLGINLIHWYQQKPGQPPKLLIYQASNKDTGVPARFSGSGSGTDFTLTINPVEANDTANYYCLQSKNFPPYTFGQGTKLEIKR
notes: Made in E. coli periplasm; also called AFRA monomer; Fab AFRA
In the case of B3, the “fold lower KD than C4” value in assay [4] stood at 3 fold. Also, the Kd in assay [5] turned out to be 43.9 nM.

B4: C4 Fab fragment (human anti-folate receptor alpha Fab, lambda light chain) (Fab, V domains shown)
VH: QVQLVESGGGLVQPGRSLRLSCTTSGFTFGDYAMIWARQAPGKGLEWVSSISSSSSYIYYADSVKGRFTISRDNAKNSLYLQMNSLRAEDTAVYYCARERYDFWSGMDVWGKGTTVTVSS
VL: QSALTQPASVSGSPGQSITISCTGTSSDVGSYNLVSWYQQHPGKAPKLMIYEGSKRPSGVSNRFSGSKSGNAASLTISGLQAEDEADYYCQSYDSSLSVVFGGGTKLTVLG
notes: It says only that C4 and AFRA share the heavy chain except for Q1N in AFRA, so C4 has Q at position 1; also called Fab C4
In the case of B4, the Kd in assay [5] is 168 nM.
